Molecular target: glutathione S-transferase fusion from pGEX-6P1 possessing a C-terminal optimized tetracysteine motif (GST-TC12)
Assay: SEC; Superdex 75 Increase 10/300, 50 mM Tris pH 7.5, 150 mM NaCl; quenched one-pot ligation mixtures (Ub or SUMO, SrtCrAsH, eSrtA, GST-TC12); peaks collected and analysed by ESI-MS

Sequence of glutathione S-transferase fusion from pGEX-6P1 possessing a C-terminal optimized tetracysteine motif (GST-TC12) (P08515 2-218): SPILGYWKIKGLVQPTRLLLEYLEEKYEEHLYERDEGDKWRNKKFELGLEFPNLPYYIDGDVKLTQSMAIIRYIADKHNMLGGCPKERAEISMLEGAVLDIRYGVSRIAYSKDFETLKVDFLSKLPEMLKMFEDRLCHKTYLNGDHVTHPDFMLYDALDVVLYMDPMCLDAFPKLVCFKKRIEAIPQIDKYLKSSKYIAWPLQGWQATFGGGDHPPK

stoichiometry N: 2
Substance: glutathione S-transferase fusion from pGEX-6P1 possessing a C-terminal optimized tetracysteine motif (GST-TC12) (natural protein)
